Results from patent publication US20210072252A1.

Target: synthetic peptide with N-terminal methionine (Example 1, on nanogel surface)
Test: single-molecule detection, TIRF microscopy; labeled NAAB on peptide immobilized on nanogel; counts per field of view

- ratio of specific to non-specific binding: 2 to 1
Substance: wild-type E. coli methionine aminopeptidase (eMAP) (from UniProt P0AE18 1-264) (enzyme)
